Values joined by “and” are separate entries in the source; they are usually repeats but may differ in a detail not shown here. Equal values may be shown once.

For orientation: IC50 means the concentration needed to halve the response being measured. A lower IC50 goes with inhibition by little substance. The Kd is the constant that tells how readily two partners part at equilibrium. Broadly, the EC50 is the midpoint of the concentration-response curve. The low end stands for a more potent agent, the high end for a less potent agent.

In one assay the target is TNFR1 on MRC-5 cells (UniProt P19438). Nature of the assay: cell-based or functional assay.
Assay [1] has as its target IL-R1-Fc (a fusion of IL-1RI and Fc) (UniProt P14778). Nature of the assay: phage-displayed dAb: no trypsin 1 hr room temp, biopanning on 1 nM IL-R1-Fc.
Assay [2] shares this target. Kind of assay: phage-displayed dAb: no trypsin overnight 37 C, biopanning on 1 nM IL-R1-Fc.
The target is the same in assay [3]. Kind of assay: phage-displayed dAb: no trypsin overnight room temp, biopanning on 1 nM IL-R1-Fc.
The target is the same in assay [4]. Nature of the assay: phage-displayed dAb: trypsin 10 µg/ml 1 hr room temp, then biopanning on 1 nM IL-R1-Fc.
The target is the same in assay [5]. Kind of assay: phage-displayed dAb: trypsin 10 µg/ml overnight 37 C, then biopanning on 1 nM IL-R1-Fc.
Assay [6] shares this target. Nature of the assay: phage-displayed dAb: trypsin 100 µg/ml 1 hr room temp, then biopanning on 1 nM IL-R1-Fc.
Assay [7] shares this target. Kind of assay: phage-displayed dAb: trypsin 100 µg/ml overnight 37 C, then biopanning on 1 nM IL-R1-Fc.
For assay [8] the target is unchanged. Kind of assay: phage-displayed dAb: trypsin 10 µg/ml overnight room temp, then biopanning on 1 nM IL-R1-Fc.
Assay [9] shares this target. Kind of assay: phage-displayed dAb: trypsin 100 µg/ml overnight room temp, then biopanning on 1 nM IL-R1-Fc.
The target of another assay is IL-1R1 (UniProt P14778). Kind of assay: Receptor Binding Assay, inhibition of IL-1 binding to IL-R1 (column head says nM, cell says pM).
In assay [10] the target is human VEGF (human vascular endothelial growth factor) (human) (UniProt P15692). Nature of the assay: BIAcore kinetics.
Assay [11] has the same target. Nature of the assay: receptor binding assay (inhibition of VEGF binding to VEGFR2).
The target is the same in assay [12]. Kind of assay: monoclonal phage ELISA on biotinylated hVEGF (neutravidin plate) after 100 ug/ml trypsin 1 h 37 C. In general terms: An ELISA detects its analyte on a solid surface through an enzyme-linked reagent.
Assay [13] shares this target. Nature of the assay: phage-displayed dAb, expt 2 (input 10^9): no trypsin 2 hr 37 C 250 rpm, capture on biotinylated rhVEGF.
The target is the same in assay [14]. Kind of assay: phage-displayed dAb, expt 2 (input 10^9): trypsin 100 µg/ml 1 hr 37 C 250 rpm, then capture on biotinylated rhVEGF.
Assay [15] shares this target. Kind of assay: phage-displayed dAb, expt 2 (input 10^9): trypsin 100 µg/ml 2 hr 37 C 250 rpm, then capture on biotinylated rhVEGF.
The target is the same in assay [16]. Nature of the assay: phage-displayed dAb, expt 1 (input 10^10): no trypsin (0 µg/ml) 1 hr room temp, capture on 50 nM biotinylated rhVEGF.
For assay [17] the target is unchanged. Nature of the assay: phage-displayed dAb, expt 1 (input 10^10): trypsin 10 µg/ml 1 hr room temp, then capture on 50 nM biotinylated rhVEGF.
Assay [18] shares this target. Kind of assay: phage-displayed dAb, expt 1 (input 10^10): trypsin 100 µg/ml 1 hr room temp, then capture on 50 nM biotinylated rhVEGF + streptavidin beads.

Chain of human VEGF (human vascular endothelial growth factor) (human) (P15692 other isoform, or with tags, fused parts or gaps limits assumed): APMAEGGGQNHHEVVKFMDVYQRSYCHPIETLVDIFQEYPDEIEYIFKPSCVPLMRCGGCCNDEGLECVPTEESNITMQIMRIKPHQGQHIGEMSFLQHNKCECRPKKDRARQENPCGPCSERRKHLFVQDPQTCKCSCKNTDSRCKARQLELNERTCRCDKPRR
Chain of IL-1R1 (P14778 18-332 limits assumed): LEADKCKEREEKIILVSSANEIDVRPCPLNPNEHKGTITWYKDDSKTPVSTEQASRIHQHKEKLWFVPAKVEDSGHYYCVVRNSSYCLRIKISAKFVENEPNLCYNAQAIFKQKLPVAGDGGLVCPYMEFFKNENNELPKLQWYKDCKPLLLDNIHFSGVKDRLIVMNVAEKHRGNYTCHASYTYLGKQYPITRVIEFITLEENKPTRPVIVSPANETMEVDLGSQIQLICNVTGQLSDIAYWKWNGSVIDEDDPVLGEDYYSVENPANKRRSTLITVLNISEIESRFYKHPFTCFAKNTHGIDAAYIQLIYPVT
Chain of TNFR1 on MRC-5 cells (P19438 30-455 limits assumed): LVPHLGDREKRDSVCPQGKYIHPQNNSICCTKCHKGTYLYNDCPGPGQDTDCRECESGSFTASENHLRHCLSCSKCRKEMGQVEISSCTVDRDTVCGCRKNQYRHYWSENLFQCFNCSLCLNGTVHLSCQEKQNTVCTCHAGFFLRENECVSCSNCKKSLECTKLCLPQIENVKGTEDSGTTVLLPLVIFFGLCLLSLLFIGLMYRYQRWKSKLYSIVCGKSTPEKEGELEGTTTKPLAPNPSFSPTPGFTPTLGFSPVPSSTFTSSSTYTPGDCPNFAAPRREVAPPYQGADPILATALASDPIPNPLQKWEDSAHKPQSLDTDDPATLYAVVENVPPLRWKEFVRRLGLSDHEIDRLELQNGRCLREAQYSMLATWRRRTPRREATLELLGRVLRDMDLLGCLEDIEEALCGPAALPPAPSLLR
Chain of IL-R1-Fc (a fusion of IL-1RI and Fc) (P14778 18-336 limits assumed): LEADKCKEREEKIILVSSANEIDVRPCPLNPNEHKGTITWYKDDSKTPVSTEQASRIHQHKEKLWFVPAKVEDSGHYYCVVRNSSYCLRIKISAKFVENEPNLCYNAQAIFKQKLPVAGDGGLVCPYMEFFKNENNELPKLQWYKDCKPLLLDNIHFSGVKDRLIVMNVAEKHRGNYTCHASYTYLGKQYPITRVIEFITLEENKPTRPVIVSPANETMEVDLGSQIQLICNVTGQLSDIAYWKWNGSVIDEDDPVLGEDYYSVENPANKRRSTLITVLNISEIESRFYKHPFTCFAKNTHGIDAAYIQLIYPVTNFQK

B1: DOM1h-131-511 (protein)
VH: EVQLLESGGGLVQPGGSLRLSCAASGFTFAHETMVWVRQAPGKGLEWVSHIPPVGQDPFYADSVKGRFTISRDNSKNTLYLQMNSLRAEDTAVYYCALLPKRGPWFDYWGQGTLVTVSS
For the molecule B1, in the assay with TNFR1 on MRC-5 cells, the ND50, MRC-5 cell-based assay (IL-8 release) was 1.98 nM and 1.71 nM and 1.46 nM; the ND50, MRC-5 cell-based assay (IL-8 release); sample DOM1h-131-511 (230307CE) is 1.89 nM.

B2: DOM1h-131-203 (protein, from a related filing)
VH: EVQLWESGGGLVQPGGSLRLSCAASGFTFAHETMVWVRQAPGKGLEWVSHIPPDGQDPFYADSVKGRFTISRDNSKNTLYLQMNSLRAEDTAVYYCALLPKRGPWIDYWGQGTLVTVSS
In the assay with TNFR1 on MRC-5 cells, B2 came in with an ND50, MRC-5 cell-based assay (IL-8 release); sample DOM1h-131-203 (230307CE) of 2.28 nM.

B3: DOM1h-131-204 (protein, from a related filing)
VH: EVQLSESGGGLVQPGGSLRLSCAASGFTFAHETMVWVRQAPGKGLEWVSHIPPDGQDPFYADSVKGRFTISRDNSKNTLYLQMNSLRAEDTAVYYCALLPNRGPWFDYWGQGTLVTVSS
On to B3, for which, in the assay with TNFR1 on MRC-5 cells, the ND50, MRC-5 cell-based assay (IL-8 release); sample DOM1h-131-204 (230307CE) came to 1.89 nM.

B4: DOM4-130-54 (protein, from a related filing)
VL: DIQMTQSPSSLSASVGDRVTITCRASQDIYLNLDWYQQKPGKAPKLLINFGSELQSGVPSRFSGSGYGTDFTLTISSLQPEDFATYYCQPSFYFPYTFGQGTKVEIKR
With B4, the output phage titre in assay [1] was determined as 6.6e+09; in assay [2], 7.2e+09; in assay [3] it was 7.8e+09; in assay [4], 7.2e+09; in [5] it was 3.84e+08; in assay [6], 1.8e+10. Moreover, the figures for the output phage titre in assay [7], in assay [8] and in [9] were 2.04e+06, 7.2e+09 and 2.16e+09, respectively. This molecule also had an IC50 with IL-1R1 of 0.28 nM.

B5: DOM4-130-202 (protein, from a related filing)
VL: DIQMTQSPSSLSASVGDRVTISCRASQDIYLNLDWYQQKPGKAPKLLISFGSELQSGVPSRFSGSGYGTDFTLTISSLQPEDSATYYCQPSFYYPYTFGQGTKVEIKR
The molecule B5 returned an IC50 with IL-1R1 of 0.254 nM.

B6: DOM4-130-201 (protein, from a related filing)
VL: DIQMTQSPSSLSASVGDRVTITCRASQDIYLNLDWYQQKPGKAPKLLIKFGSELQSGVPSRFSGSGYGTDFTLTISNLQPEDFATYYCQPSFYFPYTFGQGTKVEIKW
In the assay with IL-1R1, B6 registered a half-inhibitory concentration (IC50) of 0.257 nM.

B7: DOM15-10 (protein, from a related filing)
VL: DIQMTQSPSSLSASVGDRVTITCRASQWIGPELSWYQQKPGKAPKLLIYHTSILQSGVPSRFSGSGSGTDFTLTISSLQPEDFATYYCQQYMFQPRTFGQGTKVEIRR
As for B7, the Kd in assay [10] came to 23.6 nM. This molecule had an EC50 in assay [11] of 10.2 nM. Moreover, the OD450 in assay [12] is below 0.404. The output phage titre turned out to be 3e+08 in assay [13]; 100000 in [14]; 10000 in assay [15]; 7e+07 in assay [16]; 2.4e+08 in [17]; 1.1e+07 in assay [18].

B8: DOM15-10-11 (protein, from a related filing)
VL: DIQMTQSPSSLSASVGDRVTITCRASQWIGPELRWYQQKPGKAPKLLIYHTSILQSGVPSRFSGSGSGTDFTLTISSLQPEDFATYYCQQYMFQPMTFGQGTKVEIRG
B8 returned an equilibrium dissociation constant (Kd) in [10] of 14.6 nM. Moreover, the EC50 in assay [11] was 3.58 nM.

The record behind these values is patent US20090148437A1.
